Test results taken from paper PMC6461802, “Coupling of ssRNA cleavage with DNase activity in type III-A CRISPR-Csm revealed by cryo-EM and biochemistry” (Cell Research, 2019).
Values joined by “and” are separate entries in the source; they are usually repeats but may differ in a detail not shown here. Identical values can stand only once.

Tests used:
[1] = biological target: the molecule itself; experiment: cryo-EM structure; apo state: StCsm complex with 40 nt crRNA, wild-type Csm3; big (3.4 Å) and small (3.3 Å) particle populations; ~0.4 mg/mL, buffer 10 mM Tris-HCl pH 8.0, 150 mM NaCl, 3 mM DTT
[2] = biological target: T1, Cas10 (Csm1);Csm2;Csm3;Csm4 (Streptococcus thermophilus …, UniProt A0A0A7HFE1;A0A0A7HIX1;A0A0A7HIF0;A0A0A7HGA1 1-758;1-121;1-220;1-299, |||); experiment: cryo-EM; small conformation, 3.3 A; endogenous ATP in Cas10; Cryo-EM: complex ~0.4 mg/mL, purified in 10 mM Tris-HCl pH 8.0, 150 mM NaCl, 3 mM DTT; grids blotted at 4 C; ternary reconstitution conditions not given; details: protein: recombinant;recombinant;recombinant;recombinant; tags: ;His (N-terminal, pET-28a);;; copies: 1;3;5;1; single strand, 1 copy
T1 sequence 1: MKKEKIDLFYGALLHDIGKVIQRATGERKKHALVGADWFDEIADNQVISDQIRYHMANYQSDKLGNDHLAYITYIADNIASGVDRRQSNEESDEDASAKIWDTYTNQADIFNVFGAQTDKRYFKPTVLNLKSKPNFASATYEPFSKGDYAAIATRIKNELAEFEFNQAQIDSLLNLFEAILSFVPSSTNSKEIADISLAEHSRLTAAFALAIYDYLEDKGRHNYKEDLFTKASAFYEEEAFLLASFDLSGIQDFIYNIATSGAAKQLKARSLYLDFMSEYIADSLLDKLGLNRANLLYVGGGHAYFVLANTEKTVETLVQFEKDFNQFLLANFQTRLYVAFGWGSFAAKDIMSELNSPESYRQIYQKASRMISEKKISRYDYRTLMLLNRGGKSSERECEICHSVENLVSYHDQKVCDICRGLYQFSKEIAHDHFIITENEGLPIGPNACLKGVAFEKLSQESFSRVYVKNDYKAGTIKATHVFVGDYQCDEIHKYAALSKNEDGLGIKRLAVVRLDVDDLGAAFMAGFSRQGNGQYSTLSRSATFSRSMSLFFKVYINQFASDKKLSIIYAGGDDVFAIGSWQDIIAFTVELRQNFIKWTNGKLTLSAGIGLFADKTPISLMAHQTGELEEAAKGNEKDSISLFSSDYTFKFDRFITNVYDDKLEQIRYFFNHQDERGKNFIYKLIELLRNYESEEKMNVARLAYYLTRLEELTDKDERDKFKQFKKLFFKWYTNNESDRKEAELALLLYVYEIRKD
T1 sequence 2: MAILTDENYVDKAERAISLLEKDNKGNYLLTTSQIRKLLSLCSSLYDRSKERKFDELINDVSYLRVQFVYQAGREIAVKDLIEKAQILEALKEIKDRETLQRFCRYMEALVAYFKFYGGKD
T1 sequence 3: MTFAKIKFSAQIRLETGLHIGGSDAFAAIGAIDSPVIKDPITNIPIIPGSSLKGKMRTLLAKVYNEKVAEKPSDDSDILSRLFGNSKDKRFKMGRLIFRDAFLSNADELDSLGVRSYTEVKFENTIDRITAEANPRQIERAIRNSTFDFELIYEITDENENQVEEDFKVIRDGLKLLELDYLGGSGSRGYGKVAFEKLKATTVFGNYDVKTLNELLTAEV
T1 sequence 4: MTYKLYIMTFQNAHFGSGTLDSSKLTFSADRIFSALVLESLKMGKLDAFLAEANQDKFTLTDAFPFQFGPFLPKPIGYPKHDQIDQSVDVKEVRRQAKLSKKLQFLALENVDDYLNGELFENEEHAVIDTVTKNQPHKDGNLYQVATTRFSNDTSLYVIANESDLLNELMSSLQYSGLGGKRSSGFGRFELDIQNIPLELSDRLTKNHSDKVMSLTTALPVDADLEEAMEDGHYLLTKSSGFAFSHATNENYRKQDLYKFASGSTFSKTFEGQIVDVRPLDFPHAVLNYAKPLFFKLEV

[3] = biological target: the molecule itself; experiment: cryo-EM structure; target ssRNA-bound state: StCsm complex with 40 nt crRNA and 49 nt target ssRNA, Csm3 D33A; big (3.4 Å) and small (3.5 Å) particle populations; ~0.4 mg/mL, buffer 10 mM Tris-HCl pH 8.0, 150 mM NaCl, 3 mM DTT

Binder	stoichiometry N [1]	also measured
Csm2 of the Streptococcus thermophilus type III-A Csm complex (natural protein, Streptococcus thermophilus DGCC8004, Csm2, Streptococcus thermophilus DGCC8004; csm2 is present both on the untagged gene cassette and on the His-tag plasmid, so the 3 or 5 copies in the complex may be a mix of tagged and untagged chains; No tag removal is described; also called Csm2a; Csm2b) MAILTDENYVDKAERAISLLEKDNKGNYLLTTSQIRKLLSLCSSLYDRSKERKFDELINDVSYLRVQFVYQAGREIAVKDLIEKAQILEALKEIKDRETLQRFCRYMEALVAYFKFYGGKD	5 and 3	–
ACGGAAACUUUCGUAACUGUUUAAUUCUGUUCACUUAUUC (ssRNA) [40 nt crRNA]	–	binding result [2]: binds
Csm3 of the Streptococcus thermophilus type III-A Csm complex (wild type, apo state) (natural protein, Streptococcus thermophilus DGCC8004, Csm3, Streptococcus thermophilus DGCC8004; also called Csm3a) MTFAKIKFSAQIRLETGLHIGGSDAFAAIGAIDSPVIKDPITNIPIIPGSSLKGKMRTLLAKVYNEKVAEKPSDDSDILSRLFGNSKDKRFKMGRLIFRDAFLSNADELDSLGVRSYTEVKFENTIDRITAEANPRQIERAIRNSTFDFELIYEITDENENQVEEDFKVIRDGLKLLELDYLGGSGSRGYGKVAFEKLKATTVFGNYDVKTLNELLTAEV	7 and 5	–
Csm3 D33A of the Streptococcus thermophilus type III-A Csm complex (target ssRNA-bound state) (natural protein, Streptococcus thermophilus DGCC8004, Csm3, Streptococcus thermophilus DGCC8004, with D33A to eliminate ssRNA cleavage) MTFAKIKFSAQIRLETGLHIGGSDAFAAIGAIASPVIKDPITNIPIIPGSSLKGKMRTLLAKVYNEKVAEKPSDDSDILSRLFGNSKDKRFKMGRLIFRDAFLSNADELDSLGVRSYTEVKFENTIDRITAEANPRQIERAIRNSTFDFELIYEITDENENQVEEDFKVIRDGLKLLELDYLGGSGSRGYGKVAFEKLKATTVFGNYDVKTLNELLTAEV	–	stoichiometry N [3]: 7 and 5
